Data as given in patent publication US20140221287A1, “Amylin Peptides and Derivatives and Uses Thereof” (ASTRAZENECA PHARMACEUTICALS LP, priority 2011, published 2014).
No end group written: not given here.

B1: Cmpd 26, [K^31(mPEG40KD)]-Cmpd 8 (peptide)
peptide: CNTATCATQRLANFLVRSSNNLGPVLPPTK(mPEG40KD)VGSNTY-NH2
modifications: ends and bridges not checked
B2: Cmpd 22, [K^21(mPEG40KD)]-Cmpd 4 (peptide)
peptide: CNTATCATQRLANFLVRSSK(mPEG40KD)NLGPVLPPTNVGSNTY-NH2
modifications: ends and bridges not checked
B3: Cmpd 24, [K^26(mPEG40KD)]-Cmpd 6 (peptide)
peptide: CNTATCATQRLANFLVRSSNNLGPK(mPEG40KD)LPPTNVGSNTY-NH2
modifications: ends and bridges not checked
B4: Cmpd 2 ([desLys^1]-Cmpd 1) (peptide)
peptide: CNTATCATQRLANFLVRSSNNLGPVLPPTNVGSNTY-NH2
modifications: ends and bridges not checked
B5: Cmpd 20, mPEG40KD-Cmpd 2 (peptide)
peptide: mPEG40KD-CNTATCATQRLANFLVRSSNNLGPVLPPTNVGSNTY-NH2
modifications: ends and bridges not checked
B6: Cmpd 21, [K^21(mPEG40KD)]-Cmpd 3 (peptide)
peptide: KCNTATCATQRLANFLVRSSK(mPEG40KD)NLGPVLPPTNVGSNTY-NH2
modifications: ends and bridges not checked
B7: Cmpd 23, [K^26(mPEG40KD)]-Cmpd 5 (peptide)
peptide: KCNTATCATQRLANFLVRSSNNLGPK(mPEG40KD)LPPTNVGSNTY-NH2
modifications: ends and bridges not checked
B8: Cmpd 25, [K^31(mPEG40KD)]-Cmpd 7 (peptide)
peptide: KCNTATCATQRLANFLVRSSNNLGPVLPPTK(mPEG40KD)VGSNTY-NH2
modifications: ends and bridges not checked
B9: Cmpd 27, [K^26(Y-shaped-mPEG4OKD)]-Cmpd 5 (peptide)
peptide: KCNTATCATQRLANFLVRSSNNLGPK(Y‑shaped‑mPEG40KD)LPPTNVGSNTY-NH2
modifications: ends and bridges not checked

molecular target: amylin receptor in membranes prepared from the nucleus accumbens portion of the brain (rat) (rat); assay: displacement of 125I-rat amylin from rat nucleus accumbens membranes

B1 and B2 are within 1.5-fold of each other in IC50: 75 nM for the first, 112 nM for the second.

Going from B3 to B4, the IC50 falls from 54 nM to 0.42 nM (130-fold). The second is the more potent here.

B5 and B6 are within 1.5-fold of each other in IC50: 78 nM for the first, 104 nM for the second.

B7 and B8 are within 1.5-fold of each other in IC50: 66 nM for the first, 86 nM for the second.

B9 showed an IC50 of 470 nM.
